B1: dimeric form of human PRLR (Example 12 ELISA) (Fc fusion, part only; not given: Dimerising Fc part, part only)
chain, part: QLPPGKPEIFKCRSPNKETFTCWWRPGTDGGLPTNYSLTYHREGETLMHECPDYITGGPNSCHFGKQYTSMWRTYIMMVNATNQMGSSFSDELYVDVTYIVQPDPPLELAVEVKQPEDRKPYLWIKWSPPTLIDLKTGWFTLLYEIRLKPEKAAEWEIHFAGQQTEFKILSLHPGQKYLVQVRCKPDHGYWSAWSPATFIQIPSDFTMND
B2: H1H6801P (antibody, human IgG1, V domains shown)
VH: QVQLQQSGPGLVKPSQTLSLTCVISGDSVSSNTAWNWVRQSPSRGLEWLGRTYYRSKWYNDYAVSVKSRITINPDTSKNQFSLLMNSVTPEDTAVYYCARVVRGLNYFDYWGQGTLVTVSS
VL: DIVMTQSPDSLAVSLGERATINCKSSQSVLYNSNNKNYLAWYQQKPGQPPKLLIYWSSSRESGVPDRFSGSGSGTDFTLTISGLQAEDVAIYYCQQYSTIPYTFGQGTKLEIK

Columns and labels:
[1] = molecular target: human prolactin (PRL) (human) (UniProt P01236); experiment: ELISA: dimeric PRLR (3.38 pM to 200 nM) on plate-coated human PRL (1 µg/mL), HRP anti-Fc-gamma detection
human prolactin (PRL) (human), sequence (P01236 29-227 limits assumed): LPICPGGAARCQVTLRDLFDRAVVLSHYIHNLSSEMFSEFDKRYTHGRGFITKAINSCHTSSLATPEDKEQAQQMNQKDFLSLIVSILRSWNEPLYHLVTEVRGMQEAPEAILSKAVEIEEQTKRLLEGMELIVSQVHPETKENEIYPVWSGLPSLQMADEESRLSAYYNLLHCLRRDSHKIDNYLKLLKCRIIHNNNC

[2] = molecular target: mouse PRLR construct with an HA tag on HEK293/mPRLR cells (mouse) (UniProt Q08501); experiment: FACS on HEK293/mPRLR cells
mouse PRLR construct with an HA tag on HEK293/mPRLR cells (mouse), sequence (Q08501 20-608): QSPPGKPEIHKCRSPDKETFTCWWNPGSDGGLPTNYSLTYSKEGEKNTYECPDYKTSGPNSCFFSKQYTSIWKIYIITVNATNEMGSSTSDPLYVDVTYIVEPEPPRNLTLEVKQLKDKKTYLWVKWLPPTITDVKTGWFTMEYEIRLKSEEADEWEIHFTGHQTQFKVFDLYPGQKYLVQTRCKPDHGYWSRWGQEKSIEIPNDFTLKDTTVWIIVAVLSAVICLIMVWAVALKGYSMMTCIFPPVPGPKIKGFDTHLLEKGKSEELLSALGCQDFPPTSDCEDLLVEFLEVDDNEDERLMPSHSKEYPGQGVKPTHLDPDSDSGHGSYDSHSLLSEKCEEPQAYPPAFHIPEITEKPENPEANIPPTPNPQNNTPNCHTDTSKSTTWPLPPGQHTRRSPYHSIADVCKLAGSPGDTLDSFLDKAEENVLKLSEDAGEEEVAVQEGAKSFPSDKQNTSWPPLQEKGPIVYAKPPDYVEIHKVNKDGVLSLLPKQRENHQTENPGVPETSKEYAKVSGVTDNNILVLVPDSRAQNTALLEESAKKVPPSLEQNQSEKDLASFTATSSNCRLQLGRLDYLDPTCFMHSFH

Binder	EC50 [1]	FACS Cell Binding (Fold Above Background) [2]
B1	4.9 nM	–
B2	–	56 fold
